Data as given in the domain aggregation screens of Martell et al. (2025).

Test: soluble fraction after stress (log2 fold change); higher = more stays soluble; pooled small domains, quantitative proteomics
Conditions: stress: pH 4
How it was run: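 Values are on a log2 scale, where higher means more of the domain stayed soluble after pH 4 stress. They are fold changes in the soluble amount of each domain from pooled custom libraries, measured by high-throughput quantitative proteomics. The fold change is taken to reflect aggregation propensity.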

Sequence | soluble fraction (log2)
HMVLMPIDALRGSSSSSEMRIAAVKFSPSKGWYFSLQERSDEGSSYYEQKVASDGSVSERVKVR | -0.69
HMAKDEYGLTSNQRAFADEYIRNKGNATQAYLFAYPHIKKENTAAVNASRLLRNAKVSKYIADRTKEIL | -0.146
HMGKTIIQLATDYLIKNMQPKSLHDIESYVLTRKKIKKSSIGAILLSKPNIFGRTEDGLFGLRIWNNFQYT | -0.14
HMSGPVITEERNIANALISGLANMKETPTREQVERKAQQIAELFGYTGDLRNIITEAMISVDT | -0.137
HMNMRVLSEQPNKKSYQDGNLRLKVFGASFKKSDILNEALNQARVEETGLQIPKLLEVKQIDGQWTIVTE | -0.393
HMSAQDLIVRRDSARIEARVTEISPTEIRYKRASNPDGPTYVLPLGDVRSIRYANGEEEVFAPA | -0.0969
HMNTEVDKVLLRSGEAYFGEVLLRNDELVMMKTQDGARFQFPVSEIKSIEKVSVADALRHINS | 0.162
HMLLFNPGEVLKGFVLQSGTNNRVLLQIGDSRVIADTQTPLKAGEQLVLRVEETGPKTILQILG | 0.0206
HMDLDIGSVLQASRGEKKISLRQLAERTGLTASMLSQIERNLVNPSINTLKVIAAALEIPMYKFFMG | -0.583
HMEVSTRQVRAALRDIIEAEDKKRPLSDEAITARLREQGLPVARRTVAKYREQMGILAARLRK | 0.0717
HMSGSGYAYVDKYGYSHVVKDYDTAKNYASDGNVYNYSGSHKGGYAYDADNYRVPLDLPGSKPYG | -0.183
HMDEETVALQKAIHSLPPKQQAVFNMRYYDEMSFREIADANETTESSAKANYHFAKAKIIEQMKR | 0.166
HMPFDWSAFDWKGWADEALAIIKTANQDQMNKWTEDNEKIIVQAETAAPDIYKTVGDEYDKKMESFN | 0.0448
HMADRLITLSEVASLLRVSRHTVQAWISPSSPNHRPEFAIMARHAGRRTVFIEAEVTAWLDQRRG | -0.7
HMAIPTTDSDKATDAQIKQIKLLGDIHPNLKLDAWLERNHVTWETLTREQAGNMMKAIKNKYGD | 0.132
HMVLPELRLQGLPTAVLRLINRATALADDYRRLMEIAEDGRIDEWEAPEFERISENIQRVIAAGFEVL | 0.1
HMRDKTMLGNVIRTRRKKMNLTLEELSKQVGITSGGLSQIERGLVDPSLSVLRRISRALNLPMNVMFSE | ≥ 0.43
HMVEREYRLEVPPEAEGKRLDQFLVNQPVQLSRSQVQHLIQNGLVLVNAKTRRSSYRVHTGDIIEMQVPA | -0.088
HMKEVVKVTITPSEKLKSQYPDALVSIDGKFYDLGILNNPVEFYMDKDHKISIIWSTAELVESFRI | -0.248
HMSSEITYDKFIEMVDKDQVKEVTLQSGVLTVVPKIQKSYYQNASYKVNQMEDVDALTKRLEGTGIVFHY | 0.129
HMDNIKRGEMFYISRGGASYSGSEQHSDRPAVVVSNDKNNENSNVVEVVYMTTQPKTDLPTHVTVR | -0.0773
HMLDVGDQLVKKLKDNDSLDFHFVNSKEANKGLKDGDYYMVITIPSNFSKNATTLLDKNPKKMVLNYTTNP | 0.13
HMDLRVKRTNKMIMEAFIHLVEQKGYDNITVQEIADEAMINRATFYAHFKDKQDLYDHIFKQAI | -1.33
HMSAEDQRRASQEAAYRFMQVMAGNEAGFEDAARALFAGDNHRFEVLIQSWPDDVRDHVSLLSVDAFA | -1.78
HMDPGPVLISAQVLDDLEAIRRDGSSNMLDWPAVARLAEVMGMDRTAAWVRTHHREYSAGIFRGFASD | -0.744
HMELEENTERVLNILIENDIISENDIAEKLEVKINGARKALYKLKEVGFVEYTKERDEEKKWWYIYFWKLN | -0.36

Sequence | soluble fraction (log2)
HMLGDIYISIPRAKLQAEEYGHSFKRELAFLAVHGFYHLLGYDHQTKEEEEVMFGKQEEVLAEFDIKR | -0.245
HMTVLVPNLTGKTLLEAEILLDQAGLKKGDVYSESNKNVPKDHIIRQKPAPNTKIQKGATIDIYRSLGPE | -0.0793
HMAIGERIRFLRTLRRMTQKELGLAAGFPEKNASIRMAQYENGTRTPKAELTAVLAEILKVSPQALTV | 0.173
HMRNAAGGIYGWMTLHQVAETVKLTEEEVIAITNLPAGIPRDVSLKNIEGVNDEELRALLEAYLEKQ | -0.968
HMERLKRVTLSLNQSNYSVTEIARRLQAITGIKDITVVEDEQAVYLKVDPATFDLTLAQQAV | -0.653
HMRSYTPGSAFRLSSVPVYNAETGPSIGVRSGTYYIHSLPVSNGRIRMTNLISRVGKPGQVSFWVEISR | 0.0269
HMRPKVADIDYFDGKTFTIEDGSKHSITTSEAKKIYFYLVKNGYVDDESHVTDAYRSAATSGTLA | -0.0612
HMKITKIWFTADHIFGRDEEGKEYSQSLLWYPKLSAASDEERSQYTFGYDGIHWRSLDEDISFESF | -1.52
HMITNESEIERIVEAIISKNPESIAQYRSGITKVLGFLVGQVMKETKGRANPALVNRIIISKME | 0.242
HMVLIQNEDVKDISNYPLLSSVPVFDVFNNKMIIPTFNKDSFNPLIYNFNFNSKRRLIYRVDNTNYLIVIK | -0.241
HMPPSRFNELSMWFQEQLTEAGLKVDSGALKMLIEWLGQDQARLPSIIEVLVSTYGTKKKLTVDEIEPFL | -1.02
HMGLPPIATGVNDNMSFSQAFAAARAEVGAGGAFEWHGRVYGTYYKNEWDGMSAQERHDFEIAAIRGS | -0.0114
HMTEDIAVRILEFLEDNNGFYALNDKTPSEKIHDLFGVSKKKFKIALGGLYKQRLITVSDAGVTLVK | -0.404
HMQQPVVVQQNQTVRVVTGGPGFQVANEGRALNNGLAGQVVQVRLGNGQIISGIARAGGIVEIL | 0.22
HMHKIRRQTKITKSLLDQIEGIGSSRKKALLNHFGSAKAVGEAGETDLGTVKGISNSLAKKIYDFFHAT | 0.281
HMDAAYVYVIGTRVNQRAGPSTSNAVMGVLSEGTRVETLRDEGQWTQIRSNFGTGWMSSSFLSSVAP | 0.124
HMGLGQRIKARREALGLSQARLGEAVGVSLQAVSNWERDEYLPDTARLPLIARALGLTPGQLME | 0.11
HMKSLPQKLLAYLESQGLTRDEAGEFVKQGLKITSNDVDQIQLLLANTEVIDIKLQEFIAQK | -0.549
HMVDYYEILGVSPDASRKDIENAWRKKMREAHPDMGGSEDKAQLLNEAHKVLSDESARAEYDASR | -0.0915
HMRIGINDRIHEIVDVLRLKKSTPFEDLFSGLVTRFDLVITFLALLEMGKLRLLRLYQTDPLAPLHVEYTG | 0.0416
HMESRETGLPVVIISDGRILQDNLKRRGLDLSWLDKQLAEHGYPDFRDVFLLTVDEAGGVYFVPRE | -0.145
HMNDAEEKAEAIEGVKNFMANMEKTDIDFKSKESVLLEQVEEIRKNYPVAQWPVIVKQLYNNIGRL | -0.257
HMTPVEVNARGVHVDFSKGGILLEDVVRHLILEALRASEWKRGPAAQLLGISKETLRYRMEKYRLYPP | -0.706
HMSTLKSALDEIPGIGAARKRALLNHFGSTRVISSVGVKDLEQVEGVSKKIALLIYGYFHDK | ≥ 0.43
HMKKIFIDAPLDTMITIPKDTTHHLLTVFRHKMEKPVLVGGSDGRTGVYQIQDVVDGEASAKLVGDIQ | 0.318
HMKLISVAVMRASDAAEIAGGTDSKTLMYRAGLGLFQSWDWHGKIDIVTGSGNNAGDGYVLALLL | -0.548

Sequence | soluble fraction (log2)
HMSRFLEGILQRRAGGKNYFVPDDGSNPIFIADRNSAGAANGDRVRIAQFARRPRSGPEGEVVEILKRAK | 0.153
HMIKSMTGYGSAKGTVEGIEVSVELKSVNNKFLDTSIRLPRSFLFAEETIKQAVSSHISRGKVDVFVSVDS | -0.0706
HMDFYVILGVDRAASLSDVKRAYRRLARKHHPDINPGDPESDAFFMRVTEAYETLVDPDRRQEYDEHG | -1.34
HMEQISDEDTLRKMVNEVLDNNQTQLEQYKSGKTNLIGFFVGQTLKKSAGKANPSIVNKLVNEEIYI | 0.0623
HMIFELDSDRASAGNTIGKLVSKWNNTEVASVQFVSGDDTSNKDNASIYLNTRSGGSGNLVRLRITK | 0.108
HMKKNLELGLLPHEVKSILGEPDFIDTITDIDGIRYDMWSYTKLNVTKRLYFEDLFLVRMEE | -1.42
HMDETELLLQKAIATLPDKQRVVFNLKYFDEMKYEEMSELLETSVGALKASYHLAVKKIEQFFHDA | -0.241
HMAVPLVRGTVTSSVGTVLLLSVGERDFFLSEGEEKDGVLLQSLSEKSAVVVVSGRAYTLSL | -0.435
HMSFPLKRGSKGNRVTQLQNALVKKFGASILPKYGVDGMFGKEVEAALVRAKLPTSINESTYNSFV | -0.0036
HMLNPMILLTKGGENIRLDKFLSSHLSDLSRTQIQKMVKEGLVLVNGEPSKVGLKLDGSETIQYTLPK | 0.254
HMNQIFAPMPGLVLEVKLSEGDVVAEGESAIILEAMKMENIIKSPINGIVKKVHVKKGQTIEKNTLIISFK | -1.06
HMEKELVSDFASRISTARSSKGWNHAELGKRMAETVNVIKSAESGKPPTDSVVKKLERVLGITLMEV | -0.218
HMHLTRYLHTMIRAANLDDTLDFFVEKLGLIEAYRYSNEAGRFTLVFLSAPDDLESAQSRQAPLVEITYN | -0.329
HMSDTSAIEKIIDEVLSDESSQKAINDIKNGNEKVYGFLVGQVMKKSQGKANPGLVQKMLREKIAK | 0.22
HMRTDQYHYLAWKQVADELGIPFDEQVNERLRGVSRMASFDIILERYDGTMSDEEKIHWTDKKNEIYKSM | -1.68
HMFGIEIPEEAGKLQDYTLTDDDLEGGNTLKEIQFPQGARVVIIRRDDKFIIPDGSVELQSGDQLLIIYGE | -1.81
HMGLNVSYRMDGENVVETIIFSGATMIRTVTPTGTMTIKTIENGSTSTAKVNADYSVYKKIYEAQY | -1.03
HMDSIGTQIRKLREEAEMPLRKLSALLDIDQSTLSKIERDERRANTQMIEQIAKIFKVNKEQLLVA | -1.98
HMNLPTSGVDALTPAERRVARMAGDGQSNREIAQTLFVTRKTVEIHLTSVYRKLGIASRAELSARL | -0.59
HMRDITAQSNASELYFEERDLEAFIEKLERLYPEIRYVNRLMIHSWGQQVVRFFDPDGNLIEVGTP | -1.28
HMKTVLDSLLRILDSKELDIVVLRHIVGLTLTEIAKEKDMKKGTVFWMYNRAVKKLRLESERMGL | -0.977
HMDTNEPFAQLQLRFTDPIQYDYEVIRPVVLFSQSVTDRSDETEMPRTTVREKARQFVTEGMLGLVDK | -0.216
HMQPMIQIHTLANHAPVALHIKRNTQRNIIIRARDASSLNLSIPKWFSPAQLQNWLRDNEATLIRILQQAP | -0.256
HMWSNTAVIDRIRQLHEEGQPISSQSVQVNHKSLYMAAIKRFRGWKRAVEAAGIDYRQIRLR | 0.404
